Assays:
CD4^+ ATH8 cells = assay: Toxicity on ATH8 target cells (% toxicity, dye exclusion); format: cell-based; details: additive alone, no test compound
Experimental: (§1) HIV Cytopathic Effect Inhibition Assay.
The HIV cytopathic effect inhibition assay was performed as previously described. […] On day 8 in culture, the viable cells were counted by using the dye exclusion method. All compounds, including inactives, were evaluated a minimum of two times in separate experiments. Data reported in Table II are from representative tests. The % protection against the virus was determined by the following formula: 100 times [(the number of viable cells exposed to HIV-1 and cultured in the presence of the compound minus the number of viable cells exposed to HIV-1 and cultured in the absence of compound) divided by (the number of viable cells cultured alone minus the number of viable cells exposed to HIV-1 and cultured in the absence of the compound)]. The % toxicity of a compound on the target cells was determined by the following formula: 100 times [1 minus (the number of total viable cells cultured in the presence of the compound divided by the number of total viable cells cultured alone)]. Calculated percentages equal to or less than zero are expressed as 0%.

[1] = test system: HIV-1/IIIB (CD4^+ ATH8 cells); assay: HIV cytopathic effect inhibition assay in ATH8 cells (% protection); format: cell-based; details: additive alone, no test compound
Experimental: as §1
The HIV cytopathic effect inhibition assay was performed as previously described. (Mitsuya, H. & Broder, S. Proc. Nat. Acad. Sci. USA 1986, 83, 1911) Briefly, 200,000 target CD4^+ ATH8 cells were exposed to cell-free HIV-1/IIIB at a dose of 43 (or 1087 for compound 1g) TCID50 (50% tissue culture infectious dose) for 1 h, resuspended in 2 ml of fresh culture media containing interleukin 2, and cultured at 37° C. with or without test compounds in 5% CO2 -containing humidified air. On day 8 in culture, the viable cells were counted by using the dye exclusion method. All compounds, including inactives, were evaluated a minimum of two times in separate experiments. […] The % protection against the virus was determined by the following formula: 100 times [(the number of viable cells exposed to HIV-1 and cultured in the presence of the compound minus the number of viable cells exposed to HIV-1 and cultured in the absence of compound) divided by (the number of viable cells cultured alone minus the number of viable cells exposed to HIV-1 and cultured in the absence of the compound)]. The % toxicity of a compound on the target cells was determined by the following formula: 100 times [1 minus (the number of total viable cells cultured in the presence of the compound divided by the number of total viable cells cultured alone)]. […]

B1: ADA: adenosine deaminase (adenosine aminohydrolase, EC 3.5.4.4) from calf intestinal mucosa (protein, UniProt P56658 2-363, looked up)
Adenosine deaminase: AQTPAFNKPKVELHVHLDGAIKPETILYYGRKRGIALPADTPEELQNIIGMDKPLSLPEFLAKFDYYMPAIAGCREAVKRIAYEFVEMKAKDGVVYVEVRYSPHLLANSKVEPIPWNQAEGDLTPDEVVSLVNQGLQEGERDFGVKVRSILCCMRHQPSWSSEVVELCKKYREQTVVAIDLAGDETIEGSSLFPGHVKAYAEAVKSGVHRTVHAGEVGSANVVKEAVDTLKTERLGHGYHTLEDATLYNRLRQENMHFEVCPWSSYLTGAWKPDTEHPVVRFKNDQVNYSLNTDDPLIFKSTLDTDYQMTKNEMGFTEEEFKRLNINAAKSSFLPEDEKKELLDLLYKAYGMPSPASAEQCL
- toxicity / viability effect of additive alone (in words) (CD4^+ ATH8 cells): neither influenced the viability
- protection by additive alone (in words) [1]: neither influenced the viability nor protected infected ATH8 cells

Source: patent publication US5459256A, “Lipophilic, aminohydrolase-activated prodrugs” (priority 1991, dated 1995)
